Data reported in IntAct's records for PubMed 16107882.

B1: Bud site selection protein 14 (Saccharomyces cerevisiae), P27637 (parent)
chain: MSNKEEHVDETSASGVKEVSSIAARHDNGYAPSLITSTSGMDSFQSHALLNDPTLIEDYSDIINNRPTSGSKLTLGNEDSESMGGSVVVTPTSNKSSPFNSKLNILSNAAEKGHDVLRNRDDDKELEEENVEKHMHSNSKRDQRHYKENSSELPDSYDYSDSEFEDNLERRLQEIETDSVDSADKDEVHFSVNNTMNPDVDDFSDGLKYAISEDEDEEENYSDDDDFDRKFQDSGFQGEKDDLEEENDDYQPLSPPRELDPDKLYALYAFNGHDSSHCQLGQDEPCILLNDQDAYWWLVKRITDGKIGFAPAEILETFPERLARLNCWKNENMSSQSVASSDSKDDSISSGNKNQSDAESIIPTPALNGYGKGNKSVSFNDVVGYADRFIDDAIEDTSLDSNDDGGEGNGQSYDDDVDNDKETKVTHRDEYTEAKLNFGKFQDDDTSDVVSDVSFSTSLNTPLNVKKVRRQDNKNESEPKTSSSKDREDDYNANRYVGQEKSEPVDSDYDTDLKKVFEAPRMPFANGMAKSDSQNSLSTIGEFSPSSSEWTNESPSTPIVEESSSIPSSRAIKDISQYIHAKSKIEETTNVENTEGQIQASLGSSGGMANQTDAEQPKEELEKHHSTPEEEKQSTLSLHSSSEEDFYMDEQRAVSSASINSSLSGSRALSNTNMSDPASKPNSLVQHLYAPVFDRMDVLMKQLDEIIRK

Variants of: B1
Conditions: with pp12_yeast GLC7, P32598
Sequence of pp12_yeast GLC7, P32598 (P32598 whole entry): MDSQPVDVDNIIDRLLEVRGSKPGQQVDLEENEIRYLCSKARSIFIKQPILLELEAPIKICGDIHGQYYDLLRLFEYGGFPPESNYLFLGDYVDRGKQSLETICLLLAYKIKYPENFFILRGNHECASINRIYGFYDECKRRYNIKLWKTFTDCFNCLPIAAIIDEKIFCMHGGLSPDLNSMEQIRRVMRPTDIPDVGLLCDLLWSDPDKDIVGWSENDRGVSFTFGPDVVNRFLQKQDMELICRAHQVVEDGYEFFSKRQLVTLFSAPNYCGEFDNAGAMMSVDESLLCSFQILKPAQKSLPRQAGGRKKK

| effect of a mutation on the interaction | Variant |
| --- | --- |
| decreasing interaction | V377A |
| decreasing interaction | F379A |

Variants of: B1
Conditions: with bem2_yeast BEM2, P39960
Sequence of bem2_yeast BEM2, P39960 (P39960 whole entry): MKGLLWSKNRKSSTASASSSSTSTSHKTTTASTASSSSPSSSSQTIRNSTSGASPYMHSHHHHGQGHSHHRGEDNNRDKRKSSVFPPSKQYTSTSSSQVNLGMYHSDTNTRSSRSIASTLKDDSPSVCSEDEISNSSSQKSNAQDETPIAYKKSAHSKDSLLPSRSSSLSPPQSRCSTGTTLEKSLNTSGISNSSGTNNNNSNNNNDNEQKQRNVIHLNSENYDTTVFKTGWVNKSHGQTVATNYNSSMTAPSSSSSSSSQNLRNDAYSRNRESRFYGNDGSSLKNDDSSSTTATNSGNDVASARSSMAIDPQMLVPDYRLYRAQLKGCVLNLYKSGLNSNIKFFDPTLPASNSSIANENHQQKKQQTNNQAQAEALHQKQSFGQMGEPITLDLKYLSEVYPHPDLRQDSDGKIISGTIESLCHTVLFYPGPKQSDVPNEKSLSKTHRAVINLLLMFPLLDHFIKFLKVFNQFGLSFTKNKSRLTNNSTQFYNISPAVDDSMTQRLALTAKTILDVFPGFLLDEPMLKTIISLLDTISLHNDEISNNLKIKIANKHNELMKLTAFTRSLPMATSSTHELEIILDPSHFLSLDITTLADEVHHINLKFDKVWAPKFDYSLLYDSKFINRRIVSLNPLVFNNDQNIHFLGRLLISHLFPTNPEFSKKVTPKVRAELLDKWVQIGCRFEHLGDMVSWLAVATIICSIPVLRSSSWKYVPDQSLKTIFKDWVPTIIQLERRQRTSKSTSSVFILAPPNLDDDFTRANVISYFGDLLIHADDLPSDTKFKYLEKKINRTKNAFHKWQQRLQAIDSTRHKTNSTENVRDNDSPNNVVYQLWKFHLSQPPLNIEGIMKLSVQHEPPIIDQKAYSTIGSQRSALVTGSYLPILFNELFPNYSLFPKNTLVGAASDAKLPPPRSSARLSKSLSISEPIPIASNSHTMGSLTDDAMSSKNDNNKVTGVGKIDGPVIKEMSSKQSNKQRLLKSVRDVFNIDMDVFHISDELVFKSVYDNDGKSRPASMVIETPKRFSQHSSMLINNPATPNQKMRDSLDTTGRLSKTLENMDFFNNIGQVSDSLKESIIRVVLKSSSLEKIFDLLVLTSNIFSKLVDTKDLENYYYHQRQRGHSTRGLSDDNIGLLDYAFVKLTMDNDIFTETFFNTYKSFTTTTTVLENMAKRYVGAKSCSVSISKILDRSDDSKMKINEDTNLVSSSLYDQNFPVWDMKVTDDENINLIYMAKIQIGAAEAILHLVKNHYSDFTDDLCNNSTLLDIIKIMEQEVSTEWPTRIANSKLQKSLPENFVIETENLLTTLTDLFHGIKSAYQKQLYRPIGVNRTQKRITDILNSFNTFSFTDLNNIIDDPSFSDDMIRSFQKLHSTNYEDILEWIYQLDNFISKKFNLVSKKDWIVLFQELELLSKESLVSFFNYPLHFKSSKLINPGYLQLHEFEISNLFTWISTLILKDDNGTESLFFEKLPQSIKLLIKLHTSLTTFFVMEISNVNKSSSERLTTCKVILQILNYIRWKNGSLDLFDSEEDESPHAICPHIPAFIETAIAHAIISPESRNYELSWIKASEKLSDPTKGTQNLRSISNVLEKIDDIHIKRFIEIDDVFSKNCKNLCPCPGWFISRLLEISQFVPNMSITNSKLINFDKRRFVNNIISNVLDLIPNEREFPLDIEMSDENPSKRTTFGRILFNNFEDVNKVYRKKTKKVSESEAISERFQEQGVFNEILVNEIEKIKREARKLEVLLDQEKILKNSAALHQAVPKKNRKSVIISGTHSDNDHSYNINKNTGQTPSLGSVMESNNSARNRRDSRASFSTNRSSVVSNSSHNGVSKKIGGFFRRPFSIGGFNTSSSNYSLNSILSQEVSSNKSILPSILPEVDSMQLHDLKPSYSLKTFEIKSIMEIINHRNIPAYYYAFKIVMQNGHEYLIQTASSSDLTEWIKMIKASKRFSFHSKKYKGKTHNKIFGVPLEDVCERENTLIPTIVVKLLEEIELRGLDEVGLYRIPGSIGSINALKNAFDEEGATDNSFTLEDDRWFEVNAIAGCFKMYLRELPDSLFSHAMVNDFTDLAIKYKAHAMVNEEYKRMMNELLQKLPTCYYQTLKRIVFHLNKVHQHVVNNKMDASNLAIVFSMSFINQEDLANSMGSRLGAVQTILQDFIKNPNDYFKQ

| effect of a mutation on the interaction | Variant |
| --- | --- |
| decreasing interaction | F379A |
